According to US20210087244A1 (UNIVERSITY OF BRITISH COLUMBIA, published 2021):

Assays:
Test in all cases: SPR direct binding (MASS-1), hybridoma supernatant over immobilized antigen
[1] = molecular target: T1, A-beta42 Oligomer (human)
T1 construct: also called A β 42 Oligomer; A-beta 1-42 oligomers
Procedure: (§1) All SPR measurements were performed using a Molecular Affinity Screening System (MASS-1) (Sierra Sensors GmbH, Hamburg, Germany), an analytical biosensor that employs high intensity laser light and high speed optical scanning to monitor binding interactions in real time. The primary screening of tissue culture supernatants was performed using an SPR direct binding assay, whereby BSA-conjugated peptides, A-beta42 Monomer and A-beta42 Oligomer are covalently immobilized on individual flow cells of a High Amine Capacity (HAC) sensorchip (Sierra Sensors GmbH, Hamburg, Germany) and antibodies flowed over the surface. Protein G purified mAbs were analyzed in a secondary screen using an SPR indirect (capture) binding assay, whereby the antibodies were captured on a protein A-derivatized sensorchip (XanTec Bioanalytics GmbH, Duesseldorf, Germany) and A-beta40 Monomer, A-beta42 Oligomer, soluble brain extracts and cerebrospinal fluid flowed over the surface. The specificity of the antibodies was verified in an SPR direct binding assay by covalently immobilizing A-beta42 Monomer and A-beta42 Oligomer on individual flow cells of a HAC sensorchip and flowing purified mAbs.
(§2) Clones were retested for their ability to bind cyclic peptide, linear peptide, A-beta 1-42 monomer and A-beta 1-42 oligomers prepared as described above. Binding assays were performed using SPR as described above (Direct binding assays).

[2] = molecular target: T2, linear CGHHQKG-conjugated-BSA (SEQ ID NO: 2) (bovine, UniProt P02769 25-607, conjugated to BSA)
T2 construct: also called Linear-Peptide; linear peptide-BSA
Procedure: as §1, §2

[3] = molecular target: T3, cyclo(CGHHQKG)-conjugated-BSA (SEQ ID NO: 2) (bovine, UniProt P02769 25-607, head-to-tail cyclized (amide bond between N- and C-terminus); conjugated to SMCC-activated BSA)
T3 construct: also called Cyclic-Peptide; cyclic peptide-BSA
Procedure: as §1, §2

T3 sequence (P02769 25-607 limits assumed): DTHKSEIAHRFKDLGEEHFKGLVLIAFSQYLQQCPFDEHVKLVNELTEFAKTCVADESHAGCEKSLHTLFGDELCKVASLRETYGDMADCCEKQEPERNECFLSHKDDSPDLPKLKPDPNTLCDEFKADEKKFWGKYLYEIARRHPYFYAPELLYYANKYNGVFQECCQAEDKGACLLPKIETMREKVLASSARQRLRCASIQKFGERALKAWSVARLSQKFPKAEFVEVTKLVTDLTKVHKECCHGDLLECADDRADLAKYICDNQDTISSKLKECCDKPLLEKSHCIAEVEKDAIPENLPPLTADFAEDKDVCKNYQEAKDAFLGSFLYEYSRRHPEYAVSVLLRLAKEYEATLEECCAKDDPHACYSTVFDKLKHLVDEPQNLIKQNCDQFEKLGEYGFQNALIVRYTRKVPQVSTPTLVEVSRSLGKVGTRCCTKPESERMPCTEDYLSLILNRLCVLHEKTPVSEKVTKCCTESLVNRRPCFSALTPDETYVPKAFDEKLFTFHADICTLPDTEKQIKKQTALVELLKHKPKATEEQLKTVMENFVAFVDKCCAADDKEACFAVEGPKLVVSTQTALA
T2 sequence (P02769 25-607 limits assumed): as above
T1 sequence (peptide, as listed by the source): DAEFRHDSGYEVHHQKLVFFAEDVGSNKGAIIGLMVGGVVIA

response units (RU) [1]: 66.8 RU
response units (RU) [2]: 1150 RU
response units (RU) [3]: 698 RU
B1: 301-12G11 (17) (antibody, V domains shown)
VH: QVQLQQPGAELVKPGASVKMSCKASGYSFTSYWINWVKQRPGQGLEWIGDVHPGRGVSTYNAKFKSKATLTLDTSSSTAYMQLSSLTSEDSAVYYCSRSHGNTYWFFDVWGAGTTVTVSS
VL: DVLMTQTPLSLPVSLGDQASISCRSSQSIVHSNGNTYLEWYLQKPGQSPKLLIYKVSNRFSGVPDRFSGSGSGTDFTLKISRVEAEDLGVYYCFQGSHVPFTFGSGTKLEIKR
notes: they begin with a leader (MGWSC.../MKLPV...) and end with a few constant-region residues
